Laboratory results from patent US10562947B2, “Compositions and methods for preventing or treating diseases, conditions or processes characterized by aberrant fibroblast proliferation and extracellular matrix deposition” (MOERAE MATRIX, INC., priority 2011, dated 2020).

Key:
Assay in all cases: Kinase Profiling Assay
Assay type in all cases: biochemical
Conditions in all cases: 100 μM peptide
Fer(h) = Fer(h) (Homo sapiens, UniProt P16591)
How it was run: (§1)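 Duplicate activity readings per kinase; peptide inhibitors of MK2 profiled against 266 human kinases for selectivity.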

Hck(h) activated = target: T1, Hck(h) activated (Homo sapiens, UniProt P08631)
T1 construct: purchased Millipore
T1 sequence (P08631 whole entry): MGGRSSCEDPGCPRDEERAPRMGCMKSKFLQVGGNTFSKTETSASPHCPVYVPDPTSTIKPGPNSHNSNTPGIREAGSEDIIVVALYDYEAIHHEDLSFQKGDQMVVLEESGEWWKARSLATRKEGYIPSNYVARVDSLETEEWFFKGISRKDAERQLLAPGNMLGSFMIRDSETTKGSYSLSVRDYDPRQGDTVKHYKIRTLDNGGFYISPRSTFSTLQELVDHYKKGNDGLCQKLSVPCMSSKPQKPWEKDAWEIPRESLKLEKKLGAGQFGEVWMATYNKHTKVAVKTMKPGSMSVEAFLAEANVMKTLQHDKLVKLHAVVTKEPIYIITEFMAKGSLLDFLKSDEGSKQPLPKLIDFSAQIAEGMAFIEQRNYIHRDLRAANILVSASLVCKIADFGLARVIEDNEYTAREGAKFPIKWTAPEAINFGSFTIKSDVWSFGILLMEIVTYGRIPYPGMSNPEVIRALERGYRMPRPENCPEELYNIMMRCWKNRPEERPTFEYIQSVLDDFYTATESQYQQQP
How it was run: as §1

LKB1(h) = target: T2, LKB1(h) (Homo sapiens, UniProt Q15831)
T2 sequence (Q15831 1-433): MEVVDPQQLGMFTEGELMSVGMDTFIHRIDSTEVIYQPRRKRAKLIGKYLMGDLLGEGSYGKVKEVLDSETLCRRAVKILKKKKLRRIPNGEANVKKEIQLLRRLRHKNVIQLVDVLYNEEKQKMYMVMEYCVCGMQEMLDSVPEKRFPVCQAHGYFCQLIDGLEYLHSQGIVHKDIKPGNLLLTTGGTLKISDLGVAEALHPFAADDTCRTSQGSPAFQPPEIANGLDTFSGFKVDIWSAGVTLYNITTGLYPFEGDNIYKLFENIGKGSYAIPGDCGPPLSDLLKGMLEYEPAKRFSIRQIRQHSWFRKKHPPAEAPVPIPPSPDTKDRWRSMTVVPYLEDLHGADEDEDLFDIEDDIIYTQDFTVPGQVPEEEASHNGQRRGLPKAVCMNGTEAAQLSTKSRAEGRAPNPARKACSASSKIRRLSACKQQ
T2 sequence (Q7RTN6 1-431 partner): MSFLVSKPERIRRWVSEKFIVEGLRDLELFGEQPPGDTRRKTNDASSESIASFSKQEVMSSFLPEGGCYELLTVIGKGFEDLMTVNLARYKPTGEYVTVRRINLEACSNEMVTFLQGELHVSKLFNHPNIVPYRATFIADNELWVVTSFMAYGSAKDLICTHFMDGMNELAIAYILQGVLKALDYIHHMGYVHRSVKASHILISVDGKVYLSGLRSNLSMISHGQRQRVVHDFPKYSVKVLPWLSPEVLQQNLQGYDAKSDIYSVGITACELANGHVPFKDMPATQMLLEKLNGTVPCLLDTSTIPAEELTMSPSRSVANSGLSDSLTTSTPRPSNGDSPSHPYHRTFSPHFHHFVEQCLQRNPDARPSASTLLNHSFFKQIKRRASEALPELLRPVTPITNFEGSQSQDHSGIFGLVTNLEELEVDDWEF
T2 sequence (Q9Y376 1-341 partner): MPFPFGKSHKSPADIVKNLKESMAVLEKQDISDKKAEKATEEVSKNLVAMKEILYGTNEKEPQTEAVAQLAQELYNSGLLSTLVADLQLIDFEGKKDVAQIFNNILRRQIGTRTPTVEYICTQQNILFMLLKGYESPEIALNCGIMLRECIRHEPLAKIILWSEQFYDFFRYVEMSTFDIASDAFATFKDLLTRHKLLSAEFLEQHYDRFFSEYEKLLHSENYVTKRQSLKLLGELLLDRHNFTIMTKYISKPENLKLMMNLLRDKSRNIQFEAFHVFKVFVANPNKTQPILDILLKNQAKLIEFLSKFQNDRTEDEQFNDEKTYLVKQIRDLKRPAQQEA
How it was run: as §1

Mer(h) = target: T3, Mer(h) (Homo sapiens, UniProt Q12866)
T3 sequence (Q12866 21-999): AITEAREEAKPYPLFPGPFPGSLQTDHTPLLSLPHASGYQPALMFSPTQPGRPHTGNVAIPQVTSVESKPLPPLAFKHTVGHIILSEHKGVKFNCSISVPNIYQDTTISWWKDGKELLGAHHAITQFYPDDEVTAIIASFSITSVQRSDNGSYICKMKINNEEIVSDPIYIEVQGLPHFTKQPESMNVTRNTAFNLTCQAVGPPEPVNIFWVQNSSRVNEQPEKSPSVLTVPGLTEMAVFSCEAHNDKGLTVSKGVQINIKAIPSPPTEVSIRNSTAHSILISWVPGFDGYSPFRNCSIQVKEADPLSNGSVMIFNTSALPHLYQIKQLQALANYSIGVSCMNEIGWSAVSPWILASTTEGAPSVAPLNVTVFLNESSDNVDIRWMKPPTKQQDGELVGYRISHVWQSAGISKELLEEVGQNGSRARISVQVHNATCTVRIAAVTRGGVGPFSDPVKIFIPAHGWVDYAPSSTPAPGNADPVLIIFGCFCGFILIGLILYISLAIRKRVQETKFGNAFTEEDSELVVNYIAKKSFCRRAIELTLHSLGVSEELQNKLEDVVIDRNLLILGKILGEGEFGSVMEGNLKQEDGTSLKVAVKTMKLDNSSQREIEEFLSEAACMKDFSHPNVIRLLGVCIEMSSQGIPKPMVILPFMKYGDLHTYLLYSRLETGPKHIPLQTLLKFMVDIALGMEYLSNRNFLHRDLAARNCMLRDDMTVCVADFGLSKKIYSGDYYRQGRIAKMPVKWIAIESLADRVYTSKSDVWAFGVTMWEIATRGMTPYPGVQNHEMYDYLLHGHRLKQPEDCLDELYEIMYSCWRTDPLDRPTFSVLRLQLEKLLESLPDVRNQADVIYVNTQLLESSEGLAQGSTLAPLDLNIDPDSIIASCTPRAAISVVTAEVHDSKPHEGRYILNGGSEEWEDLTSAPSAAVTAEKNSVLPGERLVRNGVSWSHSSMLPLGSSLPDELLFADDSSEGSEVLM
How it was run: as §1

Rsk2(h) = target: T4, Rsk2(h) (Homo sapiens, UniProt P51812)
T4 construct: purchased Millipore (IC50 Profiler Express service)
T4 sequence (P51812 whole entry): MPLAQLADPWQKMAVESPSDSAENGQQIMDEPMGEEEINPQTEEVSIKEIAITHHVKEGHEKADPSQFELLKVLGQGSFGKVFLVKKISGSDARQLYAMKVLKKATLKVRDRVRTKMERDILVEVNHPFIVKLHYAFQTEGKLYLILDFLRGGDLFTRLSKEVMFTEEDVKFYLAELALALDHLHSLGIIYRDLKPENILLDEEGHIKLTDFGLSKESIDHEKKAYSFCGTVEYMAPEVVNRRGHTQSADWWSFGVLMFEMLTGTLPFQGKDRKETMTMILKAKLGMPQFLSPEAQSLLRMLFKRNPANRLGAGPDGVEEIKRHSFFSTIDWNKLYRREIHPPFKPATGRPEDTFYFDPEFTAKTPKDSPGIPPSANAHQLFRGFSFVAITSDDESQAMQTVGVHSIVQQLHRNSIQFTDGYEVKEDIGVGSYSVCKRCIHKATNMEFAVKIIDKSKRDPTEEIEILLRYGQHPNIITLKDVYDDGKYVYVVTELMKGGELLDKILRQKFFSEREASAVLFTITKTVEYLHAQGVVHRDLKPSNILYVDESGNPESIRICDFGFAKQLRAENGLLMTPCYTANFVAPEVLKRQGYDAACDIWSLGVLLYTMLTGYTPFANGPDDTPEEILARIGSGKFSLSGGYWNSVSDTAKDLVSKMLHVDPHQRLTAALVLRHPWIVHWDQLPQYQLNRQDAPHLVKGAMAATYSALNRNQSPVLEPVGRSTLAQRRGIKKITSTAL
How it was run: as §1

SAPK2b(h) = SAPK2b(h) (Homo sapiens, UniProt Q15759)
SAPK2b(h), sequence (Q15759 whole entry): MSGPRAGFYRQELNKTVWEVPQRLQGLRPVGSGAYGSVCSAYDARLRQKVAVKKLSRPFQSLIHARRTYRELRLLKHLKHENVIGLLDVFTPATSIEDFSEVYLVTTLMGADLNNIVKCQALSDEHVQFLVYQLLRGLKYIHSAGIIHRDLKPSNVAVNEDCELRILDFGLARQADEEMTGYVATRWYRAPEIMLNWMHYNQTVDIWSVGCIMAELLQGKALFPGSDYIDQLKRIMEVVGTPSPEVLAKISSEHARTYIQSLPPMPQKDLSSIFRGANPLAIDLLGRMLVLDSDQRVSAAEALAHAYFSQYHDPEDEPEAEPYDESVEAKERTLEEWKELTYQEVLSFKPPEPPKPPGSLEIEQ
How it was run: as §1

VRK2(h) = VRK2(h) (Homo sapiens, UniProt Q86Y07)
VRK2(h), sequence (Q86Y07 whole entry): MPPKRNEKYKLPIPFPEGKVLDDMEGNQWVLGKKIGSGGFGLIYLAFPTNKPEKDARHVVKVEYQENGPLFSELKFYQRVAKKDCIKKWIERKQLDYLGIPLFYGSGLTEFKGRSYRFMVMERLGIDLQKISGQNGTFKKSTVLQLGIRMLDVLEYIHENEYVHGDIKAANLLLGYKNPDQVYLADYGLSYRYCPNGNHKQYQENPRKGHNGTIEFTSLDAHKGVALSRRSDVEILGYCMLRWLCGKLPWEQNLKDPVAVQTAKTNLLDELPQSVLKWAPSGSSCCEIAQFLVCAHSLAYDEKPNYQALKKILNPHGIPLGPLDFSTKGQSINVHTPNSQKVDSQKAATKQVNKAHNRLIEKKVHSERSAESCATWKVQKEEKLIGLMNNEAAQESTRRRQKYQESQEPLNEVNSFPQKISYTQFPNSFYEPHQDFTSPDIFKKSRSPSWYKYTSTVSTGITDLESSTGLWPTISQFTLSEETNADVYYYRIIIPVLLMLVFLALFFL
How it was run: as §1

Fer(h), sequence (P16591 whole entry): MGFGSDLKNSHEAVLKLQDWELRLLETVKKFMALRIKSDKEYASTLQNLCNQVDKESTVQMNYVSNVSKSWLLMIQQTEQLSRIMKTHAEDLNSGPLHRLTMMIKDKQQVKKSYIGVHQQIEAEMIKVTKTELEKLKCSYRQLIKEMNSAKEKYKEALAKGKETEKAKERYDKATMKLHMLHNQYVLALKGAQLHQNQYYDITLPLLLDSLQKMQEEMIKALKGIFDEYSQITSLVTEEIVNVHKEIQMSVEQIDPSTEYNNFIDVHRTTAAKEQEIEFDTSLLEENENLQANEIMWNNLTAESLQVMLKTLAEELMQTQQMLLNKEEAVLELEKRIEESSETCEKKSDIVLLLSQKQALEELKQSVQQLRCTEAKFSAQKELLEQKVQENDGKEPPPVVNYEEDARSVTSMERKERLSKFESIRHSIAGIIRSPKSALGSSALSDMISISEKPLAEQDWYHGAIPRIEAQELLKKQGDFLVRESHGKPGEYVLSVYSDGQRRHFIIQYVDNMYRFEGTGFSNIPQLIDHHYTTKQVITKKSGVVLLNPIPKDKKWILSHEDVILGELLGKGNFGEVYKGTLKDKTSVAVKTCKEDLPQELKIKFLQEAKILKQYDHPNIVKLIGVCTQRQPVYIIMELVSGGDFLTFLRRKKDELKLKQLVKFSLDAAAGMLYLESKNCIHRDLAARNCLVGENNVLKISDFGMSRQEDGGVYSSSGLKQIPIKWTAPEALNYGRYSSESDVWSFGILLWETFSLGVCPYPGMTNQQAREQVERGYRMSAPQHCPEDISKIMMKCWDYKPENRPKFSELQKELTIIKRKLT

Sequence: HRRIKAWLKKIKALARQLGVAA (Mammalian) [MMI-0500]
- Fer(h) % activity (Fer(h)): 196%
- Hck(h) activated % activity (Hck(h) activated): 67%
- LKB1(h) % activity (LKB1(h)): 51%
- Mer(h) % activity (Mer(h)): 17%
- Rsk2(h) % activity (Rsk2(h)): 14%
- SAPK2b(h) % activity (SAPK2b(h)): 42%
- VRK2(h) % activity (VRK2(h)): 169%

Sequence: FAKLAARLYRKALARQLGVAA [MMI-0300]
- Fer(h) % activity (Fer(h)): 130%
- Hck(h) activated % activity (Hck(h) activated): 82%
- LKB1(h) % activity (LKB1(h)): 101%
- Mer(h) % activity (Mer(h)): 52%
- Rsk2(h) % activity (Rsk2(h)): 51%
- SAPK2b(h) % activity (SAPK2b(h)): 81%
- VRK2(h) % activity (VRK2(h)): 161%

Sequence: YARAAARQARAKALNRQLGVA (Mammalian) [MMI-0200]
- Fer(h) % activity (Fer(h)): 101%
- Hck(h) activated % activity (Hck(h) activated): 100%
- LKB1(h) % activity (LKB1(h)): 99%
- Mer(h) % activity (Mer(h)): 90%
- Rsk2(h) % activity (Rsk2(h)): 101%
- SAPK2b(h) % activity (SAPK2b(h)): 95%

Sequence: KAFAKLAARLYRKALARQLGVAA [MMI-0400]
- Fer(h) % activity (Fer(h)): 108%
- Hck(h) activated % activity (Hck(h) activated): 81%
- LKB1(h) % activity (LKB1(h)): 89%
- Mer(h) % activity (Mer(h)): 50%
- Rsk2(h) % activity (Rsk2(h)): 38%
- SAPK2b(h) % activity (SAPK2b(h)): 82%
- VRK2(h) % activity (VRK2(h)): 185%
